Columns and labels:
[1] = molecular target: T1, recombinant mannan-binding lectin (UniProt P11226 21-248); assay: affinity chromatography on rMBL-coupled beads
T1 construct: Oligomeric collectin; also called rMBL; MBL

BSA = molecular target: T2, BSA (UniProt P02769 25-607); assay: SPR (BIAcore 3000), BSA-coated surface
T2 construct: also called BSA-coated surface
Description: Using SPR we determined the strength of the interaction between MAp44 and MBL, and compared it to that of MASP-3 and MBL. The purity of the rMBL has been reported before and the rMAp44 and rMASP-3 preparations were deemed pure by silver staining of SDS-PAGE gels (FIG. 4A). MBL was coupled to SPR chips at two different densities. An SPR chip, activated and blocked, was used for subtraction of the bulk refractive index background. A BSA-coated surface served as an extra background control, which gave no higher signal than the blank surface for both MASP-3 and MAp44. […] The measurements at the other coupling density of MBL were in agreement for both MASP-3 and MAp44. The calculated KDs were similar to the 0.8 nM reported for the binding of MASP-2 to MBL.
The SPR experiments were similar to those reported (7, 8). Using a BIAcore 3000 instrument (GE Healthcare®), binding of either rMASP-3 or rMAp44 was measured on 10940 RU of rMBL immobilized on a CM5 sensor chip (30 μg rMBL/ml used for derivatization), at a flow rate of 5 μl/min. Equivalent volumes of rMASP-3 and rMAp44 were injected at concentrations from 1 nM to 30 nM. Data were analyzed by global fitting to a 1:1 Langmuir binding model for several concentrations simultaneously using the BIAevaluation 4.1 software (GE Healthcare®).

T2 sequence (P02769 25-607 limits assumed): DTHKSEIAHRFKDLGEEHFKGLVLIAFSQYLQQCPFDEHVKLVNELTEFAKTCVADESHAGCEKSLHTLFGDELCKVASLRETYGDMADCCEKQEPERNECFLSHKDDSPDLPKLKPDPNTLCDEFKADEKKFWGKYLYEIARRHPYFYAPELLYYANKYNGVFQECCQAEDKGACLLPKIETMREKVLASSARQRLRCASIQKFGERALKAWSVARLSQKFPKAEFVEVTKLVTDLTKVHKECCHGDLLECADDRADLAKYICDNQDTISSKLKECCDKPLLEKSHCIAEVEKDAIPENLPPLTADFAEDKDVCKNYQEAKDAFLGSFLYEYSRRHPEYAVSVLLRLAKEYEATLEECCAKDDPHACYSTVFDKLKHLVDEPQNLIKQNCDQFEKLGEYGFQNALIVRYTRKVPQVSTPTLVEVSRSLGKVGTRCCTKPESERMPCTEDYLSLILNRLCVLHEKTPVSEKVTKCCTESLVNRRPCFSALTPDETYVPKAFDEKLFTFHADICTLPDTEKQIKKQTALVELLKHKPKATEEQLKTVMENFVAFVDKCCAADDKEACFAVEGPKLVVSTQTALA
T1 sequence (P11226 21-248 limits assumed): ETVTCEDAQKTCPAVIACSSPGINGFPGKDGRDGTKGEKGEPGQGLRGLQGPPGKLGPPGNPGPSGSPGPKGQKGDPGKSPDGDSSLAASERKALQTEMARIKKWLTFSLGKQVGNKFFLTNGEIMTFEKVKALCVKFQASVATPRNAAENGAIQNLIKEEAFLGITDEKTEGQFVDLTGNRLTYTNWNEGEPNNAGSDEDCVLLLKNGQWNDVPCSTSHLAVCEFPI

Row | Binder | binding result [1] | binding result (BSA)
1 | recombinant MAp19 (other, UniProt O00187-2 16-185, looked up, also called rMAp19; rMAP19) TPLGPKWPEPVFGRLASPGFPGEYANDQERRWTLTAPPGYRLRLYFTHFDLELSHLCEYDFVKLSSGAKVLATLCGQESTDTERAPGKDTFYSLGSSLDITFRSDYSNEKPFTGFEAFYAAEDIDECQVAPGEAPTCDHHCHNHLGGFYCSCRAGYVLHRNKRTCSEQSL | binds | –
2 | recombinant MAp44 (mannan-binding lectin-associated protein of 44 kDa) (other, Made by transient expression of the MAp44 cDNA (imaGenes clone IRAKp961F1682Q) in 293F cells and purified on rMBL-coupled beads; also called rMAp44; rMAP44) HTVELNNMFGQIQSPGYPDSYPSDSEVTWNITVPDGFRIKLYFMHFNLESSYLCEYDYVKVETEDQVLATFCGRETTDTEQTPGQEVVLSPGSFMSITFRSDFSNEERFTGFDAHYMAVDVDECKEREDEELSCDHYCHNYIGGYYCSCRFGYILHTDNRTCRVECSDNLFTQRTGVITSPDFPNPYPKSSECLYTIELEEGFMVNLQFEDIFDIEDHPEVPCPYDYIKIKVGPKVLGPFCGEKAPEPISTQSHSVLILFHSDNSGENRGWRLSYRAAGNECPELQPPVHGKIEPSQAKYFFKDQVLVSCDTGYKVLKDNVEMDTFQIECLKDGTWSNKIPTCKKNEIDLESELKSEQVTE | – | no binding

Source: patent US20120122107A1 (AARHUS UNIVERSITET, published 2012)
